From the supplement of paper PMC10567573

B1: LOC100129726 (parent)
chain: AKAADSPTRNDLESGLGHFSLRVH
B2: TFE3 (parent)
chain: FHLGLEDILMEEEEGVVGGLSGGA

Variants of: B1
Assay: protein stability index of a GFP-peptide fusion (GPS, HEK-293T) (PSI 1-6); higher = more stable
Details: c terminus: a fixed tail appended
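Further: lentivirally expressed fusions sorted by FACS into six bins by GFP to DsRed ratio, PSI derived from sequencing read proportions per bin multiplied by bin number.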

Variant | protein stability index
S6E | 3.5
S6N | 3.58
S6I | 2.53
S6G | 2.72
S6L | 2.16
S6P | 3.16
S6H | 2.95
S6C | 2.71
S6A | 2.45
S6Q | 3.76
S6W | 1.92
S6F | 2.74
S6M | 2.16
S6R | 3.08
S6K | 2.98
S6D | 3.44
S6T | 3.39
S6V | 2.77
S6Y | 2.26
D5I | 2.65
D5K | 3.19
D5C | 2.34
D5S | 3.07
D5V | 2.54

Variant | protein stability index
D5P | 2.48
D5L | 2.56
D5F | 2.17
D5E | 3.16
D5M | 3.06
D5Y | 2.3
D5R | 2.67
D5H | 2.63
D5A | 2.84
D5W | 2.14
D5Q | 3.15
D5G | 2.9
D5T | 2.61
D5N | 2.81
A4K | 3.09
A4Y | 2.42
A4P | 3.06
A4R | 2.81
A4S | 3.1
A4D | 3.87
A4Q | 3.15
A4C | 3.05
A4F | 2.31
A4V | 2.4

Variant | protein stability index
A4L | 2.95
A4H | 3.36
A4N | 3.04
A4W | 2.16
A4E | 4.12
A4M | 2.54
A4I | 2.98
A4T | 3.7
A4G | 2.86
T8K | 2.73
T8M | 2.12
T8F | 2.35
T8I | 2.45
T8A | 2.95
T8L | 2.13
T8G | 3.61
T8D | 3.31
T8H | 2.63
T8C | 2.07
K2E | 3.98
K2L | 3.03
K2D | 3.55
K2C | 2.05
K2G | 2.71

Variant | protein stability index
K2M | 2.78
K2R | 3.38
K2S | 2.99
K2A | 3.68
K2I | 3.21
K2F | 2.42
K2Q | 2.69
K2P | 3.23
K2T | 3.27
K2N | 2.88
K2Y | 2.49
K2V | 3.18
K2H | 3.38
K2W | 1.66
A3I | 2.69
A3C | 2.73
A3H | 3
A3G | 3.42
A3S | 3.49
A3R | 3.58
A3V | 2.28
A3M | 2.27
A3Q | 3.03
A3F | 2.77

Variant | protein stability index
A3K | 3.23
A3W | 2.21
A3E | 3.8
A3T | 2.58
A3D | 3.44
A3N | 2.97
A3P | 3.04
A3L | 2.6
A3Y | 2.26
A1P | 3.17
A1Y | 3.34
A1V | 3.39
A1L | 2.9
A1T | 3.25
A1S | 3.36
A1D | 3.88
A1E | 3.47
A1H | 3.27
A1K | 3.34
A1C | 2.1
A1M | 2.74
A1Q | 3.38
A1R | 2.74
A1F | 2.6

Variant | protein stability index
A1I | 2.48
A1W | 2.33
A1G | 3.1
A1N | 3.25
P7N | 3.27
P7K | 2.92
P7T | 3.2
P7D | 3.64
P7E | 3.28
P7H | 3.45
P7G | 2.77
P7R | 3.56
P7L | 3.09
P7A | 3.49
P7Y | 2.18
P7Q | 3.41
P7S | 2.81
P7I | 2.75
P7C | 2.16
P7W | 1.65
P7V | 2.7
P7M | 2.57
P7F | 2.33

Variants of: B2
Assay: as above
Details: c terminus: a fixed tail appended

Variant | protein stability index
G15K | 4.11
G15H | 3.25
G15E | 4.39
G15M | 3.05
G15A | 4.1
G15L | 3.1
G15V | 3.64
G15D | 4.19
G15W | 2.3
E14R | 3.55
E14T | 3.25
E14I | 2.22
E14P | 3.53
E14W | 1.43
E14F | 1.78
L9Q | 4.39
L9P | 4.21
L9V | 4.11
L9F | 3.29
L9C | 4.06
L9R | 4.5
L9A | 4.22
L9I | 3.7
G18K | 2.99

Variant | protein stability index
G18Q | 4.23
G18M | 3.6
G18P | 3.85
G18L | 3.3
G18W | 3.06
G18N | 3.77
E12M | 2.29
E12P | 2.43
E12S | 3.29
E12Q | 3.47
E12A | 2.6
E12H | 3.09
E12V | 1.74
E12C | 2.83
F1W | 4.09
F1P | 4.88
F1Y | 4.24
F1A | 5.2
F1E | 4.53
F1L | 4.36
E11S | 2.95
E11H | 2.73
E11G | 2.61
E11F | 2.09

Variant | protein stability index
E11T | 2.97
E11V | 2.67
E11C | 2.6
E11I | 2.08
E11L | 2.2
H2N | 4.84
H2R | 4.16
H2D | 4.81
H2V | 2.75
H2S | 4.27
H2I | 2.52
H2E | 3.95
H2F | 3.15
A24R | 3.86
A24D | 4.17
A24Q | 4.24
A24E | 3.9
A24I | 2.66
A24V | 3.74
A24F | 2.39
A24S | 3.82
A24L | 2.94
A24N | 3.65
A24C | 3.73

Variant | protein stability index
A24K | 3.98
E13F | 1.84
E13M | 2.15
E13G | 2.58
E13Y | 2.11
I8H | 4.01
I8C | 4.03
I8M | 3.58
I8Q | 4.28
I8T | 3.88
I8E | 4.72
I8P | 4.89
I8S | 4.28
I8R | 3.93
I8W | 3.24
I8K | 4.31
I8L | 3.78
G19V | 3.22
G19H | 3.47
G19P | 3.52
G19L | 3.25
G19Q | 4.09
G19C | 3.43
G19M | 3.71

Variant | protein stability index
G19Y | 2.67
S21A | 3.9
S21Q | 4.07
S21L | 3.01
S21T | 3.54
S21I | 3.27
S21G | 4.07
G23C | 3.21
G23A | 3.37
G23K | 3.89
G23V | 3.98
G23L | 3.58
G23S | 3.52
G23H | 3.43
G23E | 4.87
V16A | 3.87
V16Q | 4.29
V16G | 3.97
V16E | 4.3
V16T | 4
V16M | 3.58
D7P | 3.5
D7M | 1.65
D7N | 3.04

Variant | protein stability index
D7R | 2.16
D7T | 3
D7L | 2.16
D7I | 2.25
D7C | 2.34
L20T | 4.11
L20D | 4.92
L20M | 3.19
L20N | 4.59
L20K | 4.55
L20C | 3.91
L20G | 3.98
L20E | 4.99
L20A | 4.74
G4W | 2.67
G4F | 2.01
G4A | 2.97
G4C | 2.67
G4K | 2.23
G4Q | 3.54
G4M | 2.5
G4V | 2.13
G4S | 3.94
L3R | 4.14

Variant | protein stability index
L3D | 5.27
L3S | 3.5
L3C | 2.34
L3K | 4.49
L3A | 4.52
L3T | 4.5
L3I | 4.07
L3M | 3.92
L3N | 4.17
M10H | 3.58
M10D | 4.13
M10K | 3.94
M10N | 3.23
M10Q | 4.34
M10Y | 3.62
V17W | 2.72
V17I | 3.92
V17R | 3.8
V17K | 3.77
V17P | 3.63
V17F | 2.88
V17T | 3.95
L5Q | 4.46
L5R | 4.04

Variant | protein stability index
L5I | 3.7
L5P | 3.59
E6D | 3.58
E6S | 2.82
E6L | 3.26
E6V | 2.34
E6M | 1.93
E6P | 3.02
E6G | 2.58
E6N | 2.73
E6H | 2.86
E6K | 2.68
E6Q | 3.31
E6C | 2.55
E6R | 3.3
E6A | 2.67
G22Q | 3.67
G22E | 4.01
G22K | 4.05
G22H | 3.8
G22Y | 2.28
G22I | 3.19
G22W | 2.85
